According to publication PMC11364024, “Binding structures of SERF1a with NT17-polyQ peptides of huntingtin exon 1 revealed by SEC-SWAXS, NMR and molecular simulation” (IUCrJ, 2024):
Substitutions are numbered along the chain they refer to.

B1: Htt-1 (NT17-polyQ peptide of 33 amino acids with four leucines in the polyQ region) (peptide)
peptide: MATLEKLMKAFESLKSFLQQLQQQLQQLQQQYK
notes: huntingtin exon 1: NT17 followed by a 14-residue polyQ region in which four leucines replace the residues of position a/d to enhance alpha-helix formation; two C-terminal residues added after the polyQ region; not of huntingtin; source: synthetic peptide (peptide synthesis core, Genomics Research Center, Academia Sinica)
B2: NT17 (the N-terminal first 17 amino acids of the Httex1 protein) (peptide)
peptide: MATLEKLMKAFESLKSF
notes: huntingtin exon 1 (Httex1), N-terminal first 17 amino acids; also called NT17 fragment; source: synthetic peptide (peptide synthesis core, Genomics Research Center, Academia Sinica)
B3: Htt-3 (NT17-polyQ peptide of 33 amino acids with four prolines in the polyQ region) (peptide)
peptide: B1 peptide with L18P, L21P, L25P, L28P
notes: huntingtin exon 1: NT17 followed by a 14-residue polyQ region in which the positions a/d are substituted by four prolines to suppress alpha-helix formation; two C-terminal residues added after the polyQ region; not of huntingtin; source: synthetic peptide (peptide synthesis core, Genomics Research Center, Academia Sinica)

Legend:
[1] = target: the molecule itself; assay: SEC-SWAXS (size-exclusion column with small- and wide-angle X-ray scattering, UV-Vis absorption and dRI); single-component samples (SERF1a 4.1 mg/ml; Htt-1 10 mg/ml injected, diluted ca. 2-4 fold on the column); sodium phosphate buffer pH 7.4; 283 K; aggregation number from zero-angle intensity I0 and the concentration from optical data
[2] = target: T1, human small EDRK-rich factor 1a (SERF1a) (human); assay: SEC-SWAXS (size-exclusion column with small- and wide-angle X-ray scattering, UV-Vis absorption and dRI); mixtures of SERF1a with NT17 or with Htt-3 at 1:2 molar ratio, eluted together; sodium phosphate buffer pH 7.4; 283 K; composition of the complex from I0, UV-Vis absorption at 214 nm and dRI over the elution peak; conditions: both partners purified
T1 construct: source: purified from the human SERF1a gene as reported previously (Tsai et al., 2023)
T1 chain: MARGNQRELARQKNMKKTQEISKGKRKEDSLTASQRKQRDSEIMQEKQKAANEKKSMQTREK

Binder | stoichiometry N [1] | stoichiometry N [2]
B1 | 2 | 
B2 |  | ~2 NT17 per SERF1a
B3 |  | ~1 Htt-3 per SERF1a
